assay: soluble on expression in E. coli; label from the status in PepcDB or PDB records

Row | Sequence | soluble on expression in E. coli
1 | MPTPTTLSEWQLLAVLSKANLVQYYDVFIAQGGDDINQIMACEEREFLEIMNLVGMLPKPLHVRRMQRALAEYSQDQTAFNLAALQQIGPPPPLNYTPAGTDPMALLLPGIAAATSPKFPSLRFLSQLSSVAEKVSTPSEAADTSSSSPSLNLNTTSSNSVPLAFKFSTPLLESLASDQQSSSTSSVRSVLPSTSSNTSHPELPAGILPATTTNVSAAVPPPSSRATANVFSGNSIGLNFSGAASVTRHLVVPPSSTSIQQPSTSFGRSSSITGQEKEGSSSPFLGVGYSQPYGNDFVSLGDFDPNNPSLTENPTLSTAQISRLAECALAASKNLPPLPPRLVQNKKRVSKEVIELLKCSPATPSMIHAFRKYSAIYGRFDTKRKPHKVLTLHETTVNEAAAQLCLLVPSLLTRRDELFPLARQIVKDAGYNYAKSRKRPCDPADLHSPISSPGNSPPPQESEFDEQPSSSSGAFKEEERPPIPPEAWAAIIEKMKGELPES | not soluble
2 | MDPGPWNECVPVRMPDDPQIHMVSNTRQAVELLTKRWPVSHGQAYQAAIDICMAVLERESPAYVARVAFVAAAKEAQVNIVS | not soluble
3 | MSQTTTNPHVAVLAFPFSTHAAPLLAVVRRLAAAAPHAVFSFFSTSQSNASIFHDSMHTMQCNIKSYDISDGVPEGYVFAGRPQEDIELFTRAAPESFRQGMVMAVAETGRPVSCLVADAFIWFAADMAAEMGVAWLPFWTAGPNSLSTHVYIDEIREKIGVSGIQGREDELLNFIPGMSKVRFRDLQEGIVFGNLNSLFSRMLHRMGQVLPKATAVFINSFEELDDSLTNDLKSKLKTYLNIGPFNLITPPPVVPNTTGCLQWLKERKPTSVVYISFGTVTTPPPAEVVALSEALEASRVPFIWSLRDKARVHLPEGFLEKTRGYGMVVPWAPQAEVLAHEAVGAFVTHCGWNSLWESVAGGVPLICRPFFGDQRLNGRMVEDVLEIGVRIEGGVFTKSGLMSCFDQILSQEKGKKLRENLRALRETADRAVGPKGSSTENFITLVDLVSKPKDV | soluble
4 | SVLPETPVPFKSGTGAIDNDTVYIGLGSAGTAWYKLDTQAKDKKWTALAAFPGGPRDQATSAFIDGNLYVFGGIGKNSEGLTQVFNDVHKYNPKTNSWVKLMSHAPMGMAGHVTFVHNGKAYVTGGVNQNIFNGYFEDLNEAGKDSTAIDKINAHYFDKKAEDYFFNKFLLSFDPSTQQWSYAGESPWYGTAGAAVVNKGDKTWLINGEAKPGLRTDAVFELDFTGNNLKWNKLAPVSSPDGVAGGFAGISNDSLIFAGGAGFKGSRENYQNGKNYAHEGLKKSYSTDIHLWHNGKWDKSGELSQGRAYGVSLPWNNSLLIIGGETAGGKAVTDSVLITVKDNKVTVQNLEHHHHHH | soluble
5 | MSSSSPNSSRSEAVNGRVVVPTGGSRRENSGPARGPAGFSATVLPCDEATKAAFAKDWKDLEQENLSSADYYFNSYAHFGIHEEMIKDSVRTGCYQRAICQNAHLFANKVVLDVGSGTGILSLFAAKAGAKHVYGIECSEIVNIARKIVKENDMEDKVTFVQGKAEEVSLPVEKVDIIISEWMGYFLLYESMLDTVLFCRDKWLKPGGMIFPDKAALYVAAIEDADYKEEKIGYWGNVYGFNFSCVRRCVMEEPIVDTVDENAVSTTSCCVLKLDLLTCTKEDLDFCAPYEITLRRKDFLHAFIAWFDVWFSHCHKPVVLSTGPHCRYTHWKQTVFYMEDVLVADVGDKVEGMIAVKKSQKNPRDLDIKISYTFNPPHAPAAIENTQFYRLR | soluble
6 | GVDRDYLQSEYGVLKAGQCYKVVRSFRDYRNINYERGDVMRFLGSNFVPYESGLSLFFDKNGSERQIMLCVRPEFQMEIAHHLDSYFCKLDDN | soluble
7 | MSLNNKIKPSILPGFMELLPKEQLVFNDIVSKITGVYEQNGFLPMDTPIIEKEEVLLAKSAGETEKQVYRIDNEDRKQVLRFDLTVPFSRFAAQYMSDLTFPFKRYQLGKVYRGERNQKGRYREFYQCDVDVVGNGNLSIKNDAFIINMASKALRKIGLDSYKFQISNRKILTGVLEGLNITNMQEVMILIDKYDKITEEQFLSELNKLIGEEKAKVISKVIKISGSSDEVVENLKKVEIKNEMLEKGIEEVEEVIKYLKLFGVEDSEYAINLKIIRGLDYYTGTVFETLLTGNESYGSICSGGRYDNLAQNYTENVLPGVGMSIGITRLFFVLREIGFIENYNSSLNEKYLIVPIGDTFEYCTKILNKLLVNGKSAEIYFEEGKLKKKLTYANKLDIKYVILIGEDEVTNKELVIKDMITGEQKKLNIEEIEGHHHHHH | soluble
8 | GMQFPSIEDLRARNTMKWTRYGQGVLPLWVAESDFSTCPAVLQAITDAVQREAFGYQPDGSLLSQATAEFYADRYGYQARPEWIFPIPDVVRGLYIAIDHFTPAQSKVIVPTPAYPPFFHLLSATQREGIFIDATGGINLHDVEKGFQAGARSILLCNPYNPLGMVFAPEWLNELCDLAHRYDARVLVDEIHAPLVFDGQHTVAAGVSDTAASVCITITAPSKAWNIAGLKCAQIIFSNPSDAEHWQQLSPVIKDGASTLGLIAAEAAYRYGTDFLNQEVAYLKNNHDFLLHEIPKRIPGAKITPMQATYLMWIDFRDTTIEGSPSEFFIEKAKVAMNDGAWFGEDGTGFCRLNFATSREVLEEAIDRMAKAVSHHT | soluble
9 | MAETDPKSVQDLTAVVQTLLQQMQDKFQTMSDQIIGRIDEMSTRIDDLEKNIADLMTQAGVEEIEGENKVKEGDAS | soluble
10 | SAAEGDFLMRYRAVSNKLKKRFLRKPNVAEASEQFGQLAKELKQQDCPQYAAFCNLAMARCEQTLFNAPGEALALTDAARLFLASEQETRALRAPGFDENMQAAMNCYSFAIKVYIEMNQPVMAARLSLELGNALKEMNRPGEAIIHFQRAAELQIQMPIEALLSLWEMASCKILTRDYDGALAVLSEMQHMCQERGLQLPGTNTPVGAFMDIIAKCEISRVLLLMLLEPPPQKLLPEHAQTLERYAWESFDSHSQMACQEKDTESLKALQTELW | soluble
11 | SGAMYIDCDGIKLNAYLDMPKNNPEKCPLCIIIHGFTGHSEERHIVAVQETLNEIGVATLRADMYGHGKSDGKFEDHTLFKWLTNILAVVDYAKKLDFVTDIYMAGHSQGGLSVMLAAAMERDIIKALIPLSPAAMIPEIARTGELLGLKFDPENIPDELDAWDGRKLKGNYVRVAQTIRVEDFVDKYTKPVLIVHGDQDEAVPYEASVAFSKQYKNCKLVTIPGDTHCYDHHLELVTEAVKEFMLEQIAK | soluble
12 | GASIHDPISAGRYFAQRLRANPNEVFAVLFLDNRHRAISFEELFHGTINGAEVHPREVVRRALTLNAAAVIVGHNHPSGNREPSPADQMITQRLKNALDLIDVRLVDHFVIGDGAPVSFAEHGWL | not soluble
13 | MGSDKIHHHHHHMSVAHENARRIISDILGKQNIERVWFVGCGGSLTGFWPGKYFLDCEASKLAVGYITSNEFVHATPKALGKNSVVILASQQGNTAETVAAARVAREKGAATIGLVYQPDTPLCEYSDYIIEYQWARYPETVDPAQQKAAYSLWLALEILAQTEGYAQYDELVSAFGRFSDVVHGAQRQVQEDAQRFAAEWKDEKVVYMMGSGPSFGAAHQESICILLEMQWINSASIHSGEYFHGPFEITEPGTPFILLQSSGRTRPLDDRAIRFIERYQGKLQLIDADKLGIQDLSTDVGEYFCGLLHNCVLDVYNLALATARNHPLTTRRYMWKVEY | not soluble
14 | MGSDKIHHHHHHMKIDDKTGLVLEGGGMRGVFTCGVLDYMMDKKVWFPYGVGVSAGACNGLSYMSRQRGRAKFSNIDLLEKYHYIGIKHLWRKHSILDQELLYEHFPKEILPYDYKTYAENPARFEMVTTNCITGRACYLEEKHDPRRIIAIAKASSSLPYVCPIAYVDGEPMLDGGIVDSIPVLRAIEQGFDKNVVVLTRNRGYRKKGKDMKIPHFIYKKYPRLRVVLSKRCRIYNEQLDLVEQLEDKGRIVVIRPEKPMEVDRIETDIKKLTDLYEEGYACAKKMFEEKRILQK | not soluble
15 | SNNVLPTWSLDSNGEMRSRLSLSEVLDSGDLMKFAVDKTGCQFLEKAVKGSLTSYQKFQLFEQVIGRKDDFLKLSTNIFGNYLVQSVIGISLATNDDGYTKRQEKLKNFISSQMTDMCLDKFACRVIQSSLQNMDLSLACKLVQALPRDARLIAICVDQNANHVIQKVVAVIPLKNWEFIVDFVATPEHLRQICSDKYGCRVVQTIIEKLTADSMNVDLTSAAQNLRERALQRLMTSVTNRCQELATNEYANYIIQHIVSNDDLAVYRECIIEKCLMRNLLSLSQEKFASHVVEKAFLHAPLELLAEMMDEIFDGYIPHPDTGKDALDIMMFHQFGNYVVQCMLTICCDAVSGRRQTKEGGYDHAISFQDWLKKLHSRVTKERHRLSRFSSGKKMIETLANLRSTHPIYELQ | soluble
16 | RMNVFDEHHFRVILDYAHNADGVRCMSELASKLEVKGKRITVLAGPGDRRDEDIVNIAKAAAGHFDIYICKADDNRRGRGVNEVPELLASSLRAEGIDESQIYCISDEVEAINKGLELANTDDLLMIFGDAITRCWKQIINFNSGHEPEQE | not soluble
17 | ILAVLFANSVGNVLIERFNGVPAEERLHWRSFLVKLGADNLKGVKNEELLVACHKSVYIVYTMLGDVSIFLVGKDEYDELALAETIYIITAAVKDVCGKPPTERVFLDKYGRICLCLDEIVW | not soluble
18 | STQESTQCHRSYLLPSGNSVTLSESTAIVSHGTTGLVTWDAALYLAEWAIENPAAFTDRTILELGSGAGLTGLAICKACCPRAYIFSDCHAQVLEQLRGNVLLNGFSLEPHTPIDAGSSKVTVAQLDWDEVTASQLSAFQADVVIAADVLYCWEMTLSLVRVLKMLEDCQRKSAPDVYVAYTIRSQDTGKLFIEELDRAGIYWEEVPPHTGKLFPYEEHSAIVILKLVLTSRHGV | soluble
19 | MGSDKIHHHHHHMDDQLNALRDLAIPFPITASFRQQARAYASQYFTQDTHERVYLNTLAVLVANAYFRLLNFQTNLTKAERWNAACRVWSEANEIELVGLGNLECRVITAGQQTIILPPETWADRIGYLFVEITSSEKVATLIGFLPAFDAETSGEEVAISTTGYAYADLKSMDEAMDYLTQQEASARSKTGEIDNLTRDFAAKKITYLRNWLNNVYDSDWEPAMRELSAATCKKKIQLVGQVFEMQLSVSQSNGAITVTVIVRLESGFLPIGIQVSVPDESEIYTETVSTPADLIRIPLEFSPGEEFWVELRWGETFTREYFIA | not soluble
20 | VIIGLHNPKSPTNVGAVMRAAGCYNATQVRYNGTRYARAVKFQTDTQNSHERIGLVEMDDLTAGLDSEVKIVCVELAVGATALPHFTHPEQAIYLFGPEDGSLPQEVVDQAHYVVYVPTHGCMNLAATVNVVLYDRLAKSL | not soluble
21 | MLKVSDLLTLEELPGITLVAGHKNQDQPILKVNILENPDILDWLTAGELLLTTGYIFKDDRKLQKNFLKELAKHHCAALGFKTQRYFEEVPPDLIKLADEMNVPILAIPYNYTFSQIADVLKSRVTLEQFDMNAQETALHNKIYQILETGSSSFHLLQDLAETIQNPVLLLNDHFEGVNFFDLPKNPIRISSILEDRQETSEFQKQLLEQSHPLLRFYQEPIHLQLKLQNQVVPIEIYPIKKKNVILYYLLVWNTLAPLRPVDVAHFKITAHYLLLQLQLEYSRKFEEYQQRNELFFKLFAHEKRDQAVFQQFQQYYRLAIDKPYAILLISLTLNERQRQERMSILGNQLNQVILGDKQKIVCIEIDSSFVLLVENPPEKEGDYLKMMQRLAQSSINQLMKVQEDVELFLTIGPKIQGLTQIHESYQQAIDVLAFQRQFVAEKPEMRIASYSNFHFRQTLQRYFLEEGQATLRKKYLQPLQKSDQQQHTDFVHTLNVYFQSKRNLSQTAKKLFIHRNTLLQRLEKIEQLVLLDFDKEVDLLALEVALFVGT | not soluble
